US20130131320A1 (published 2013)
Numbering of substitutions follows the chain as printed.

B1: h528 Fv comprising mutant VL LRL (other)
VH: QVQLVQSGAEVKKPGASVKVSCKASGYTFTSYWMHWVRQAPGQGLEWMGNIYPGSGGTNYAEKFKNRVTMTRDTSISTAYMELSRLRSDDTAVYYCARSGGPYFFDYWGQGTLVTVSS
VL: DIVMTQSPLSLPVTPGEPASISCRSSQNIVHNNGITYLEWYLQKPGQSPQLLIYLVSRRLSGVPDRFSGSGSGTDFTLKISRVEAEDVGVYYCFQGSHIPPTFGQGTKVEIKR
B2: h528Fv WT (other)
VH: B1 VH
VL: DIVMTQSPLSLPVTPGEPASISCRSSQNIVHNNGITYLEWYLQKPGQSPQLLIYKVSDRFSGVPDRFSGSGSGTDFTLKISRVEAEDVGVYYCFQGSHIPPTFGQGTKVEIKR
B3: h528 Fv comprising mutant VL LRS (other)
VH: B1 VH
VL: B2 VL with K55L, D58R, F60S

Biological target: T1, soluble EGFR (human epithelial cell growth factor receptor 1, Her1) (human, UniProt P00533 25-645)
Assay: SPR

Ka | Binder
3.5e+08 M⁻¹ | B1
4e+07 M⁻¹ | B2
6.8e+08 M⁻¹ | B3

Biological target: T1, soluble EGFR (human epithelial cell …)
Assay: ITC

Ka | Binder
4.1e+09 M⁻¹ | B1
2.1e+07 M⁻¹ | B2
1.05e+09 M⁻¹ | B3

Biological target: T1, soluble EGFR (human epithelial cell …)
Assay: SPR
Remark: another data set of the same source

koff | Binder
0.00085 s⁻¹ | B1
0.006 s⁻¹ | B2
0.00078 s⁻¹ | B3
